Measurements: publication PMC9458691
One block for each substance: values may come before it.

What was measured:
Assay in all cases: native gel or EMSA; Blue Native PAGE, gradient from 3.5 to 16% polyacrylamide, of the IEC fractions of affinity purified PSII
[1] = molecular target: PSII with the protein composition of mature PSII, isolated via CP43-TS-Tag (T. elongatus (endogenous in T. elongatus BP-1) | Thermosynechococcus elongatus BP-1) (UniProt P0A444)
[2] = molecular target: PSII with the protein composition of mature PSII, isolated via His-tagged CP43 (T. elongatus (endogenous in T. elongatus) | Thermosynechococcus elongatus) (UniProt P0A444)
[3] = molecular target: Psb27-PSII complex isolated via CP43-TS-Tag (PSII with Psb27, without the extrinsic subunits) (T. elongatus (endogenous in T. elongatus BP-1) | Thermosynechococcus elongatus BP-1) (UniProt P0A444)
[4] = molecular target: Psb27-PSII complex isolated via His-tagged CP43 (PSII with Psb27, without the extrinsic subunits) (T. elongatus (endogenous in T. elongatus) | Thermosynechococcus elongatus) (UniProt P0A444)

- stoichiometry N [1]: 2
Substance: PSII with the protein composition of mature PSII, isolated via CP43-TS-Tag (from UniProt P0A444 1-344; Q8CM25 1-352; Q8DIF8 1-461; Q8DIQ1 1-510; P0A431 27-272; Q9F1L5 31-134; P0A386 27-163) (complex)

- stoichiometry N [2]: 2
Substance: PSII with the protein composition of mature PSII, isolated via His-tagged CP43 (from UniProt P0A444 1-344; Q8CM25 1-352; Q8DIF8 1-461; Q8DIQ1 1-510; P0A431 27-272; Q9F1L5 31-134; P0A386 27-163) (complex)

- stoichiometry N [3]: 2
Substance: Psb27-PSII complex isolated via CP43-TS-Tag (PSII with Psb27, without the extrinsic subunits) (from UniProt P0A444 1-344; Q8CM25 1-352; Q8DIF8 1-461; Q8DIQ1 1-510; Q8DG60 22-134)

- stoichiometry N [4]: 2
Substance: Psb27-PSII complex isolated via His-tagged CP43 (PSII with Psb27, without the extrinsic subunits) (from UniProt P0A444 1-344; Q8CM25 1-352; Q8DIF8 1-461; Q8DIQ1 1-510; Q8DG60 22-134)
